B1: KANK2 (protein, UniProt Q63ZY3 1-851, looked up)
KN motif and ankyrin repeat …: MAQVLHVPAPFPGTPGPASPPAFPAKDPDPPYSVETPYGYRLDLDFLKYVDDIEKGHTLRRVAVQRRPRLSSLPRGPGSWWTSTESLCSNASGDSRHSAYSYCGRGFYPQYGALETRGGFNPRVERTLLDARRRLEDQAATPTGLGSLTPSAAGSTASLVGVGLPPPTPRSSGLSTPVPPSAGHLAHVREQMAGALRKLRQLEEQVKLIPVLQVKLSVLQEEKRQLTVQLKSQKFLGHPTAGRGRSELCLDLPDPPEDPVALETRSVGTWVRERDLGMPDGEAALAAKVAVLETQLKKALQELQAAQARQADPQPQAWPPPDSPVRVDTVRVVEGPREVEVVASTAAGAPAQRAQSLEPYGTGLRALAMPGRPESPPVFRSQEVVETMCPVPAAATSNVHMVKKISITERSCDGAAGLPEVPAESSSSPPGSEVASLTQPEKSTGRVPTQEPTHREPTRQAASQESEEAGGTGGPPAGVRSIMKRKEEVADPTAHRRSLQFVGVNGGYESSSEDSSTAENISDNDSTENEAPEPRERVPSVAEAPQLRPAGTAAAKTSRQECQLSRESQHIPTAEGASGSNTEEEIRMELSPDLISACLALEKYLDNPNALTERELKVAYTTVLQEWLRLACRSDAHPELVRRHLVTFRAMSARLLDYVVNIADSNGNTALHYSVSHANFPVVQQLLDSGVCKVDKQNRAGYSPIMLTALATLKTQDDIETVLQLFRLGNINAKASQAGQTALMLAVSHGRVDVVKALLACEADVNVQDDDGSTALMCACEHGHKEIAGLLLAVPSCDISLTDRDGSTALMVALDAGQSEIASMLYSRMNIKCSFAPMSDDESPTSSSAEE
B2: UBTF (protein, UniProt P17480 1-764, looked up)
Nucleolar transcription …: MNGEADCPTDLEMAAPKGQDRWSQEDMLTLLECMKNNLPSNDSSKFKTTESHMDWEKVAFKDFSGDMCKLKWVEISNEVRKFRTLTELILDAQEHVKNPYKGKKLKKHPDFPKKPLTPYFRFFMEKRAKYAKLHPEMSNLDLTKILSKKYKELPEKKKMKYIQDFQREKQEFERNLARFREDHPDLIQNAKKSDIPEKPKTPQQLWYTHEKKVYLKVRPDATTKEVKDSLGKQWSQLSDKKRLKWIHKALEQRKEYEEIMRDYIQKHPELNISEEGITKSTLTKAERQLKDKFDGRPTKPPPNSYSLYCAELMANMKDVPSTERMVLCSQQWKLLSQKEKDAYHKKCDQKKKDYEVELLRFLESLPEEEQQRVLGEEKMLNINKKQATSPASKKPAQEGGKGGSEKPKRPVSAMFIFSEEKRRQLQEERPELSESELTRLLARMWNDLSEKKKAKYKAREAALKAQSERKPGGEREERGKLPESPKRAEEIWQQSVIGDYLARFKNDRVKALKAMEMTWNNMEKKEKLMWIKKAAEDQKRYERELSEMRAPPAATNSSKKMKFQGEPKKPPMNGYQKFSQELLSNGELNHLPLKERMVEIGSRWQRISQSQKEHYKKLAEEQQKQYKVHLDLWVKSLSPQDRAAYKEYISNKRKSMTKLRGPNPKSSRTTLQSKSESEEDDEEDEDDEDEDEEEEDDENGDSSEDGGDSSESSSEDESEDGDENEEDDEDEDDDEDDDEDEDNESEGSSSSSSSSGDSSDSDSN
B3: DNTTIP2 (protein, UniProt Q5QJE6 1-756, looked up)
Deoxynucleotidyltransferase …: MVVTRSARAKASIQAASAESSGQKSFAANGIQAHPESSTGSDARTTAESQTTGKQSLIPRTPKARKRKSRTTGSLPKGTEPSTDGETSEAESNYSVSEHHDTILRVTRRRQILIACSPVSSVRKKPKVTPTKESYTEEIVSEAESHVSGISRIVLPTEKTTGARRSKAKSLTDPSQESHTEAISDAETSSSDISFSGIATRRTRSMQRKLKAQTEKKDSKIVPGNEKQIVGTPVNSEDSDTRQTSHLQARSLSEINKPNFYNNDFDDDFSHRSSENILTVHEQANVESLKETKQNCKDLDEDANGITDEGKEINEKSSQLKNLSELQDTSLQQLVSQRHSTPQNKNAVSVHSNLNSEAVMKSLTQTFATVEVGRWNNNKKSPIKASDLTKFGDCGGSDDEEESTVISVSEDMNSEGNVDFECDTKLYTSAPNTSQGKDNSVLLVLSSDESQQSENSENEEDTLCFVENSGQRESLSGDTGSLSCDNALFVIDTTPGMSADKNFYLEEEDKASEVAIEEEKEEEEDEKSEEDSSDHDENEDEFSDEEDFLNSTKAKLLKLTSSSIDPGLSIKQLGGLYINFNADKLQSNKRTLTQIKEKKKNELLQKAVITPDFEKNHCVPPYSESKYQLQKKRRKERQKTAGDGWFGMKAPEMTNELKNDLKALKMRASMDPKRFYKKNDRDGFPKYFQIGTIVDNPADFYHSRIPKKQRKRTIVEELLADSEFRRYNRRKYSEIMAEKAANAAGKKFRKKKKFRN
B4: DHX15 (protein, UniProt O43143 1-795, looked up)
ATP-dependent RNA helicase …: MSKRHRLDLGEDYPSGKKRAGTDGKDRDRDRDREDRSKDRDRERDRGDREREREKEKEKELRASTNAMLISAGLPPLKASHSAHSTHSAHSTHSTHSAHSTHAGHAGHTSLPQCINPFTNLPHTPRYYDILKKRLQLPVWEYKDRFTDILVRHQSFVLVGETGSGKTTQIPQWCVEYMRSLPGPKRGVACTQPRRVAAMSVAQRVADEMDVMLGQEVGYSIRFEDCSSAKTILKYMTDGMLLREAMNDPLLERYGVIILDEAHERTLATDILMGVLKEVVRQRSDLKVIVMSATLDAGKFQIYFDNCPLLTIPGRTHPVEIFYTPEPERDYLEAAIRTVIQIHMCEEEEGDLLLFLTGQEEIDEACKRIKREVDDLGPEVGDIKIIPLYSTLPPQQQQRIFEPPPPKKQNGAIGRKVVVSTNIAETSLTIDGVVFVIDPGFAKQKVYNPRIRVESLLVTAISKASAQQRAGRAGRTRPGKCFRLYTEKAYKTEMQDNTYPEILRSNLGSVVLQLKKLGIDDLVHFDFMDPPAPETLMRALELLNYLAALNDDGDLTELGSMMAEFPLDPQLAKMVIASCDYNCSNEVLSITAMLSVPQCFVRPTEAKKAADEAKMRFAHIDGDHLTLLNVYHAFKQNHESVQWCYDNFINYRSLMSADNVRQQLSRIMDRFNLPRRSTDFTSRDYYINIRKALVTGYFMQVAHLERTGHYLTVKDNQVVQLHPSTVLDHKPEWVLYNEFVLTTKNYIRTCTDIKPEWLVKIAPQYYDMSNFPQCEAKRQLDRIIAKLQSKEYSQY
B5: FUS (protein, UniProt P35637 1-526, looked up)
RNA-binding protein FUS: MASNDYTQQATQSYGAYPTQPGQGYSQQSSQPYGQQSYSGYSQSTDTSGYGQSSYSSYGQSQNTGYGTQSTPQGYGSTGGYGSSQSSQSSYGQQSSYPGYGQQPAPSSTSGSYGSSSQSSSYGQPQSGSYSQQPSYGGQQQSYGQQQSYNPPQGYGQQNQYNSSSGGGGGGGGGGNYGQDQSSMSSGGGSGGGYGNQDQSGGGGSGGYGQQDRGGRGRGGSGGGGGGGGGGYNRSSGGYEPRGRGGGRGGRGGMGGSDRGGFNKFGGPRDQGSRHDSEQDNSDNNTIFVQGLGENVTIESVADYFKQIGIIKTNKKTGQPMINLYTDRETGKLKGEATVSFDDPPSAKAAIDWFDGKEFSGNPIKVSFATRRADFNRGGGNGRGGRGRGGPMGRGGYGGGGSGGGGRGGFPSGGGGGGGQQRAGDWKCPNPTCENMNFSWRNECNQCKAPKPDGPGGGPGGSHMGGNYGDDRRGGRGGYDRGGYRGRGGDRGGFRGGRGGGDRGGFGPGKMDSRGEHRQDRRERPY
B6: FARSA (protein, UniProt Q9Y285 2-508, looked up)
Phenylalanine--tRNA ligase …: ADGQVAELLLRRLEASDGGLDSAELAAELGMEHQAVVGAVKSLQALGEVIEAELRSTKHWELTAEGEEIAREGSHEARVFRSIPPEGLAQSELMRLPSGKVGFSKAMSNKWIRVDKSAADGPRVFRVVDSMEDEVQRRLQLVRGGQAEKLGEKERSELRKRKLLAEVTLKTYWVSKGSAFSTSISKQETELSPEMISSGSWRDRPFKPYNFLAHGVLPDSGHLHPLLKVRSQFRQIFLEMGFTEMPTDNFIESSFWNFDALFQPQQHPARDQHDTFFLRDPAEALQLPMDYVQRVKRTHSQGGYGSQGYKYNWKLDEARKNLLRTHTTSASARALYRLAQKKPFTPVKYFSIDRVFRNETLDATHLAEFHQIEGVVADHGLTLGHLMGVLREFFTKLGITQLRFKPAYNPYTEPSMEVFSYHQGLKKWVEVGNSGVFRPEMLLPMGLPENVSVIAWGLSLERPTMIKYGINNIRELVGHKVNLQMVYDSPLCRLDAEPRPPPTQEAA
B7: CCDC47 (protein, UniProt Q96A33 21-483, looked up)
PAT complex subunit CCDC47: KFDDFEDEEDIVEYDDNDFAEFEDVMEDSVTESPQRVIITEDDEDETTVELEGQDENQEGDFEDADTQEGDTESEPYDDEEFEGYEDKPDTSSSKNKDPITIVDVPAHLQNSWESYYLEILMVTGLLAYIMNYIIGKNKNSRLAQAWFNTHRELLESNFTLVGDDGTNKEATSTGKLNQENEHIYNLWCSGRVCCEGMLIQLRFLKRQDLLNVLARMMRPVSDQVQIKVTMNDEDMDTYVFAVGTRKALVRLQKEMQDLSEFCSDKPKSGAKYGLPDSLAILSEMGEVTDGMMDTKMVHFLTHYADKIESVHFSDQFSGPKIMQEEGQPLKLPDTKRTLLFTFNVPGSGNTYPKDMEALLPLMNMVIYSIDKAKKFRLNREGKQKADKNRARVEENFLKLTHVQRQEAAQSRREEKKRAEKERIMNEEDPEKQRRLEEAALRREQKKLEKKQMKMKQIKVKAM

Test system: GFP-14-3-3β and its binding proteins
Test: GFP-14-3-3β co-IP with LC-MS/MS label-free quantification, untreated versus PP1c-treated
Set-up: species or system human
Conditions: GFP-14-3-3β co-IP LC-MS/MS; PP1 vs untreated; student's t-test; label-free quantification, 3 replicates each

| Difference (log2), PP1 vs untreated [log2] | Molecule |
| --- | --- |
| -0.5359 | B1 |
| -0.5334 | B2 |
| -0.5492 | B3 |
| -0.5557 | B4 |
| -0.548 | B5 |
| -0.541 | B6 |
| -0.5387 | B7 |

Test system: GFP-14-3-3β
Test: GFP-14-3-3β co-IP with LC-MS/MS, untreated GFP-14-3-3β versus GFP control (14-3-3 interactome)
Format: binding, human
Conditions: GFP-14-3-3β co-IP LC-MS/MS; untreated vs GFP; student's t-test; label-free quantification, 3 replicates each

| Molecule | Difference (log2), untreated vs GFP [log2] |
| --- | --- |
| B1 | 1.477 |
| B2 | 1.529 |
| B3 | 2.447 |
| B4 | 1.871 |
| B5 | -0.2742 |
| B6 | 1.078 |
| B7 | 1.192 |

— article PMC7367873, “Dissecting the sequence determinants for dephosphorylation by the catalytic subunits of phosphatases PP1 and PP2A” (Nature Communications, 2020)
